Results taken from paper PMC6978801, “Structural Basis of Teneurin-Latrophilin Interaction in Repulsive Guidance of Migrating Neurons” (Cell, 2020).

Experiments:
murine Lphn2 (ecto) = murine Lphn2 (ecto) (UniProt Q8JZZ7); assay: cell-based binding assay (immunofluorescence, HEK293 cells); conditions: n = 12; surface chicken Ten2LT, soluble His-tagged murine Lphn2 (ecto); read off a plot
murine Lphn1 (ecto) = assay: as above; conditions: n = 12; surface chicken Ten2LT, soluble His-tagged murine Lphn1 (ecto); read off a plot
Ten2 on K-562 cells = Ten2 on K-562 cells (UniProt Q9DER5); assay: K-562 cell aggregation assay; conditions: n = 3; parent: est. 56; read off a plot
FLRT2 on K-562 cells = FLRT2 on K-562 cells (UniProt Q8BLU0); assay: K-562 cell aggregation assay; conditions: n = 3; parent: est. 47; read off a plot
[1] = molecular target: murine Latrophilin 1 ectodomain (mLphn1 ecto) (mouse) (UniProt Q80TR1); assay: SPR; Biacore T200, equilibrium binding at 25 °C, PBS + 0.005% polysorbate 20 pH 7.5; Latrophilin constructs biotinylated at a C-terminal Avi-tag and coupled to a streptavidin-coated CM5 chip (670-730 RU ecto, 220 RU Lec-Olf); Ten2 ectodomains injected; apparent KD from a 1:1 Langmuir fit, analyte concentration calculated as monomer; Teneurin is dimeric, values indicative only
[2] = molecular target: murine Latrophilin 3 ectodomain (mLphn3 ecto) (mouse) (UniProt Q80TS3); assay: as above
[3] = molecular target: murine Latrophilin 2 ectodomain (mLphn2 ecto) (mouse) (UniProt Q8JZZ7); assay: as above
[4] = molecular target: chicken Ten2 ectodomain, soluble (UniProt Q9DER5); assay: cell-based binding assay (immunofluorescence, HEK293 cells); conditions: n = 12, parent: est. 58, read off a plot
[5] = molecular target: mouse Teneurin 2 protein, soluble (UniProt Q9WTS5); assay: as above; conditions: n = 12; surface murine Lphn1TL, soluble His-tagged murine Ten2 (ecto); parent: est. 27; read off a plot
Lphn1 on K-562 cells = Lphn1 on K-562 cells (UniProt Q80TR1); assay: K-562 cell aggregation assay; conditions: n = 3; parent: est. 56; read off a plot
[6] = molecular target: T1, chicken Teneurin 2 ectodomain (gTen2 ecto) (chicken, UniProt Q9DER5 429-2802); assay: SPR; Biacore T200, equilibrium binding at 25 °C, PBS + 0.005% polysorbate 20 pH 7.5; Latrophilin constructs biotinylated at a C-terminal Avi-tag and coupled to a streptavidin-coated CM5 chip (670-730 RU ecto, 220 RU Lec-Olf); Ten2 ectodomains injected; apparent KD from a 1:1 Langmuir fit, analyte concentration calculated as monomer; Teneurin is dimeric, values indicative only; conditions: both partners purified
T1 construct: Teneurin-2 (Ten2), chicken (Gallus gallus), soluble ectodomain ('ecto'); analyte concentration was calculated as monomer; also called chicken Ten2 (ecto); source: HEK293 cells, purified (HisTrap, Superdex200 size exclusion)

[7] = molecular target: T2, murine Teneurin 2 ectodomain (mTen2 ecto) (mouse, UniProt Q9WTS5 401-2764); assay: as above; conditions: both partners purified
T2 construct: Teneurin-2 (Ten2), mouse, soluble ectodomain ('ecto'); analyte concentration was calculated as monomer; also called mouse Ten2 (ecto); mouse Teneurin 2 protein; source: HEK293 cells, purified (HisTrap, Superdex200 size exclusion)

murine Latrophilin 3 ectodomain (mLphn3 ecto) (mouse), sequence (Q80TS3 20-1537): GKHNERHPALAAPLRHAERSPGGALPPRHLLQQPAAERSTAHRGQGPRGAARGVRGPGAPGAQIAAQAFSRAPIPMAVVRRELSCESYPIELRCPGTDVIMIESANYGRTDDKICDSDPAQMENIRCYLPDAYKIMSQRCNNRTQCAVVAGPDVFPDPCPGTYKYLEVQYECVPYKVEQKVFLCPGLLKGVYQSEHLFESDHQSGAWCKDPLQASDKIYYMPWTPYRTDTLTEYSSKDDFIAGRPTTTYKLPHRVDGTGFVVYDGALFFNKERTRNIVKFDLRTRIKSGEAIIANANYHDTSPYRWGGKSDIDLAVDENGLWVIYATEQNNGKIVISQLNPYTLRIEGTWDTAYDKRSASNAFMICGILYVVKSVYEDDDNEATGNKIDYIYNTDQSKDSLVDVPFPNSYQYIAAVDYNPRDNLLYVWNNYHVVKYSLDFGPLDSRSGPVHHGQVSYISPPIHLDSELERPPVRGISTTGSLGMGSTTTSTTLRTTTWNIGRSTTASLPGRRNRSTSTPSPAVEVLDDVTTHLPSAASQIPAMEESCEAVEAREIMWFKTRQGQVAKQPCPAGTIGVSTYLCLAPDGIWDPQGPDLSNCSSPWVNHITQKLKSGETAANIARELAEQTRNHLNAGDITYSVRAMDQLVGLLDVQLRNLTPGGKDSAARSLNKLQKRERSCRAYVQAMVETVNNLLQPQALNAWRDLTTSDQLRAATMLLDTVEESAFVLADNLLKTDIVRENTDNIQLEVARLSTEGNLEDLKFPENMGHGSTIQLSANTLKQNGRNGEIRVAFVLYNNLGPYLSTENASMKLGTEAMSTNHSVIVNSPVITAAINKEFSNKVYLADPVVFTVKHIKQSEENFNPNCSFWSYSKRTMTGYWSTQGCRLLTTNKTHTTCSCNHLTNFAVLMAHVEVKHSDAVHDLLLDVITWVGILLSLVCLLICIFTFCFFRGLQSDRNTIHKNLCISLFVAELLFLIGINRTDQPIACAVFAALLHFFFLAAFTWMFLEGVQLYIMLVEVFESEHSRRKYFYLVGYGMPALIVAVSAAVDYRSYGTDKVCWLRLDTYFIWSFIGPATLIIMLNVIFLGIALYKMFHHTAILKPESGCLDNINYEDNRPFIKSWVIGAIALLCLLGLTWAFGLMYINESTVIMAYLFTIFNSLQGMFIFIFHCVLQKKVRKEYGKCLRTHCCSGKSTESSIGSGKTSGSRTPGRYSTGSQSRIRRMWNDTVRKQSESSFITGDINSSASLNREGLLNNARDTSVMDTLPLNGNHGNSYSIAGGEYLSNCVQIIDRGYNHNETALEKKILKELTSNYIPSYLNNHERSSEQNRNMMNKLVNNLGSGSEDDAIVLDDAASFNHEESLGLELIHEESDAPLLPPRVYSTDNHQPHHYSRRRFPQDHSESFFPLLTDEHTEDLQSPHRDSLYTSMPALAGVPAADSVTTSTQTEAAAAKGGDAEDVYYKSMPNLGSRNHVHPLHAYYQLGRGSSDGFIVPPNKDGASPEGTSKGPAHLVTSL
murine Latrophilin 2 ectodomain (mLphn2 ecto) (mouse), sequence (Q8JZZ7 26-1487): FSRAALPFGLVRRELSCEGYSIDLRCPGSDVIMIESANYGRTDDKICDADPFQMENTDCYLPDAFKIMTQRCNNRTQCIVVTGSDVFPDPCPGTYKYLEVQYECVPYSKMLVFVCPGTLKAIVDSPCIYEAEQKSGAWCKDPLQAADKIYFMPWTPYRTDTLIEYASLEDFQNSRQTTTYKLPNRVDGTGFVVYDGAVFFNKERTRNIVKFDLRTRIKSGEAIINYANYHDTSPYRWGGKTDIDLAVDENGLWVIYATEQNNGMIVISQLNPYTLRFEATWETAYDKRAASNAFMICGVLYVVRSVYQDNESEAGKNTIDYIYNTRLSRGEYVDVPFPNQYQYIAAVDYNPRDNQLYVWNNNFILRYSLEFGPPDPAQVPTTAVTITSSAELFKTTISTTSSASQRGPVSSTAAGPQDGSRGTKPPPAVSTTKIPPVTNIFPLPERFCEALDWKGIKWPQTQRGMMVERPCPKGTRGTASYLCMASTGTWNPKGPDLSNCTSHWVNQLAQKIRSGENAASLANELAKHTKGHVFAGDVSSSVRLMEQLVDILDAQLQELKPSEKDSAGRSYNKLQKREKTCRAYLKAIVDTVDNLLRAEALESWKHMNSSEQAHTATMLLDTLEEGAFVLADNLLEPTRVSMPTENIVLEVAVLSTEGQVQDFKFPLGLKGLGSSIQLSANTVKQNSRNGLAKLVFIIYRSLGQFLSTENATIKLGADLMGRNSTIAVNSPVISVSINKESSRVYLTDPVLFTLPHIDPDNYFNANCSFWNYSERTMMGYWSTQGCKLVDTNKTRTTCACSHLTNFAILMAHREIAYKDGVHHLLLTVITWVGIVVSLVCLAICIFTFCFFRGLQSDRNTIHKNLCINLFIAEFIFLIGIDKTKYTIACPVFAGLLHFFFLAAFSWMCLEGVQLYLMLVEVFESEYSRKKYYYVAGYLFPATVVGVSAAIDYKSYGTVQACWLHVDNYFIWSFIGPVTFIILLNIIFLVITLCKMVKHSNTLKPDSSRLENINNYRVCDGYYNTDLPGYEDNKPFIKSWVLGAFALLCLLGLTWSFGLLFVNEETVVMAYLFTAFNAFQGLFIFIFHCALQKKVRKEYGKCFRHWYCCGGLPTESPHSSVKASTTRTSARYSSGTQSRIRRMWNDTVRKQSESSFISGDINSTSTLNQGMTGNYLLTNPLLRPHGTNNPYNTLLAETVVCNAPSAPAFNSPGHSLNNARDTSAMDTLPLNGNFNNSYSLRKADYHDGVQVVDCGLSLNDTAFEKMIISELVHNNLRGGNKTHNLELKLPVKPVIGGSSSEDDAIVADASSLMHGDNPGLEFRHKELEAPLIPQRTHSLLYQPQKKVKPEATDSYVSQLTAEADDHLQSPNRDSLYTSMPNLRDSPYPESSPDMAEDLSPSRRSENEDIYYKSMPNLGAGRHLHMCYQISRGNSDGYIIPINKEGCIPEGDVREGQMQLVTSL
FLRT2 on K-562 cells, sequence (Q8BLU0 36-660): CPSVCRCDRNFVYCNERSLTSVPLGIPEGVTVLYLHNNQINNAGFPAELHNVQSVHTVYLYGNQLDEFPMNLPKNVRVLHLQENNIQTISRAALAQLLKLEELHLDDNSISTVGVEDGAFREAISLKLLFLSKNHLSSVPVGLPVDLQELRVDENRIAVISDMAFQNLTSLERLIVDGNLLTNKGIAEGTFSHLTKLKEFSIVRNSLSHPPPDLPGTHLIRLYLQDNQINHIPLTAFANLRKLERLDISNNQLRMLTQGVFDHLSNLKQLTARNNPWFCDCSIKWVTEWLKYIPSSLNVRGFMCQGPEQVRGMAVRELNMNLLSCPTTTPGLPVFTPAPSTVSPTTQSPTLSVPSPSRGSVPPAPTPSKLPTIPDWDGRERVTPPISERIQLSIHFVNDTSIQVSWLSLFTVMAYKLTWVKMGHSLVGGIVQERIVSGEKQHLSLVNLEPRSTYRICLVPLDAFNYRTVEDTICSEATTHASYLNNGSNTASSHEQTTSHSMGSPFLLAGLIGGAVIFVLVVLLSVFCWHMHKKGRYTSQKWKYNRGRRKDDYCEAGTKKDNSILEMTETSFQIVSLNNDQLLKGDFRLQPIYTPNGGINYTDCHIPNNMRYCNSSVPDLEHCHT

## chicken Ten2, transmembrane construct at the surface of HEK293 cells (from UniProt Q9DER5) 1892N; K1894T
Murine Lphn2 (ecto)
  response: 2%
Murine Lphn1 (ecto)
  response: 0%

## Lphn1 on K-562 cells (from UniProt Q80TR1) E39N
Ten2 on K-562 cells
  other: aggregation (%): 5%
FLRT2 on K-562 cells
  other: aggregation (%): 68%

## murine Teneurin 2 ectodomain (mTen2 ecto) (from UniProt Q9WTS5 401-2764) (domain or fragment)
[1]
  Kd: 35 nM
[2]
  Kd: 490 nM
[3]
  Kd: 100 nM

## murine Lphn1 (mVenus-tagged, surface of HEK293 cells) L39A; P51G; D54A; D67A; D72A
[4]; surface murine Lphn1TL2, soluble His-tagged chicken Ten2 (ecto)
  response: 1.5%

## murine Lphn1 (mVenus-tagged, surface of HEK293 cells) E39N
[5]
  response: 0%
[4]; surface murine Lphn1TL, soluble His-tagged chicken Ten2 (ecto)
  response: 0%

## chicken Teneurin 2 ectodomain (gTen2 ecto) (from UniProt Q9DER5 429-2802) (domain or fragment)
[1]
  Kd: 40 nM
[2]
  Kd: 680 nM
[3]
  Kd: 60 nM

## Ten2 on K-562 cells (from UniProt Q9DER5) 1892N; K1894T
Lphn1 on K-562 cells
  other: aggregation (%): 5%

B1: murine Latrophilin 1 Lec-Olf domains (mLphn1 Lec-Olf) (domain or fragment, mouse, UniProt Q80TR1 29-395, looked up)
chain: GLPFGLMRRELACEGYPIELRCPGSDVIMVENANYGRTDDKICDADPFQMENVQCYLPDAFKIMSQRCNNRTQCVVVAGSDAFPDPCPGTYKYLEVQYDCVPYIFVCPGTLQKVLEPTSTHESEHQSGAWCKDPLQAGDRIYVMPWIPYRTDTLTEYASWEDYVAARHTTTYRLPNRVDGTGFVVYDGAVFYNKERTRNIVKYDLRTRIKSGETVINTANYHDTSPYRWGGKTDIDLAVDENGLWVIYATEGNNGRLVVSQLNPYTLRFEGTWETGYDKRSASNAFMVCGVLYVLRSVYVDDDSEAAGNRVDYAFNTNANREEPVSLAFPNPYQFVSSVDYNPRDNQLYVWNNYFVVRYSLEFGPPD
modifications: biotinylated enzymatically at the C-terminal Avi-tag
notes: The limits 29-395 are printed for the Lec-Olf construct that was crystallised; source: HEK293 cells; biotinylated enzymatically; not shown: Avi-tag, C-terminal, kept
[6]
  Kd: 590 nM
[7]
  Kd: 290 nM
